From patent publication US20080274976A1
“And” between values parts separate entries of the source, which are not always exact repeats. Identical values can stand only once.

Columns and labels:
[1] = target: TSha1 K+ channel from trout (trout); test: closed channel binding, ratio of Table III values
[2] = target: Shaker-Δ6-46 K+ channel (UniProt P08510); test: comparison of open- and closed-state KD, voltage clamp in Xenopus oocytes
[3] = target: TSha1 K+ channel from trout (trout); test: open channel binding, ratio of Table III values

Chain of TSha1 K+ channel from trout (trout) (Q9I830 whole entry): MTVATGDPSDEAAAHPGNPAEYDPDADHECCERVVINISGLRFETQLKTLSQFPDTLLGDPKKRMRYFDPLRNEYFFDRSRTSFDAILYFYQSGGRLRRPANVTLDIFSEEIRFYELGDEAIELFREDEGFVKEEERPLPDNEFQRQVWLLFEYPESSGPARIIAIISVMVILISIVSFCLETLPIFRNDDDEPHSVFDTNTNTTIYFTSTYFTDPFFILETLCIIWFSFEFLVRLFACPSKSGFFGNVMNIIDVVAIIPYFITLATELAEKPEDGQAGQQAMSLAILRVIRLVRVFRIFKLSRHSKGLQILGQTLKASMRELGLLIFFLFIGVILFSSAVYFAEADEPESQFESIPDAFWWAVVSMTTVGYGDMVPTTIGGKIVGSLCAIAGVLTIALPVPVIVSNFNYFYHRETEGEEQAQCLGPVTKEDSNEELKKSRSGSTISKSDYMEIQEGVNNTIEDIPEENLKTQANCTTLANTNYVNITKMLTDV
Chain of Shaker-Δ6-46 K+ channel (P08510 other isoform, or with tags, fused parts or gaps mutant): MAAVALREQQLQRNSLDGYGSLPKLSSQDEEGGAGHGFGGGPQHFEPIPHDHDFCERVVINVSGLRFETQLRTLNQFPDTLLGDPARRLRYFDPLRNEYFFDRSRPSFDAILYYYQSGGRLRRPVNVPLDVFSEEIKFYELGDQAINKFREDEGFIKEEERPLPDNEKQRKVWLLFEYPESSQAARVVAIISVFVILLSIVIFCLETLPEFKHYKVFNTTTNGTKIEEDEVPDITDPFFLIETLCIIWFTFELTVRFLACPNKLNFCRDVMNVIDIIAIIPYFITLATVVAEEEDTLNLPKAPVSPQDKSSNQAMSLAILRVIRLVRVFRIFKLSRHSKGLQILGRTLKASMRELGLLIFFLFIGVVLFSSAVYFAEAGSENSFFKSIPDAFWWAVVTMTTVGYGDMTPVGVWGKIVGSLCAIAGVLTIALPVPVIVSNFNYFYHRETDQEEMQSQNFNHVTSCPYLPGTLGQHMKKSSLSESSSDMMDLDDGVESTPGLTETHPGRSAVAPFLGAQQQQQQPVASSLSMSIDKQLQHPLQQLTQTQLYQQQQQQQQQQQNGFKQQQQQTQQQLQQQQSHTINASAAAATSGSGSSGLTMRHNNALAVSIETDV

κM-conotoxin RIIIK (peptide) was tested, and the fold higher k(C)on than in the Shaker-Δ6-46 channel [1] was 4 fold, the fold lower affinity for the open state (0 mV) than for the closed state [2] was 3 fold and 4 fold and the fold higher k(O)on than in the Shaker-Δ6-46 channel [3] was 3 fold. It also gave a fold smaller k(O)off than in the Shaker-Δ6-46 channel [3] of 20 fold.
